Measurements as given in patent publication US20090297524A1 (DOMANTIS, published 2009).
Where a chain is given by its changes, count along the chain named. Blank lines part the entries; values can stand above or below the binder they belong to.

Target: T1, Recombinant human CD40L (human, UniProt P29965 108-261, limits assumed)
T1 construct: also called CD40 ligand
T1 sequence (looked up): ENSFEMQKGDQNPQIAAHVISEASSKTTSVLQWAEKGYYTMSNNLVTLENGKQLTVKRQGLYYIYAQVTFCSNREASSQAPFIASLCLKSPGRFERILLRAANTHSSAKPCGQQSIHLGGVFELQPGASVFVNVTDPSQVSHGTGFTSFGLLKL
Experiment: CD40L/CD40-Fc receptor binding assay;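 also: plate assay with coated human CD40-Fc, bound ligand detected via HRP anti-biotin antibody and TMB, OD at 450 nm, lower signal indicates stronger inhibition by dAb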

B1: DOM-36 (other)
VL: DIQMTQSPSSLSASVGDRVTITCRASQDIDHNLEWYQQKPGKAPKLLIYDSSMLQSGVPSRFSGSGSGTDFTLTISSLQPEDFATYYCQQYHSIPVTFGQGTKVEIKR
notes: Vk dAb
binding result: binds

B2: DOM.101 (other)
VL: DIQMTQSPSSLSASVGDRVTITCRASQAIGHRLRWYQQKPGKAPKLLIYHRSKLQSGVPSRFSGSGSGTDFTLTISSLQPEDFATYYCQQVALFPYTFGQGTKVEIKR
notes: Vk dAb
binding result: binds

B3: DOM-35 (other)
VL: B1 VL with D28F, D30G, H31D, N32S, E34S, D50F, M53I, H92M, S93D, V96I
notes: Vk dAb
binding result: binds

B4: DOM.91 (other)
VL: DIQMTQSPSSLSASVGDRVTITCRASQQISDELNWYQQKPGKAPKLLIYAVSILQSGVPSRFSGSGSGTDFTLTISSLQPEDFATYYCQQWLSFPSTFGQGTKVEIKR
notes: Vk dAb
binding result: binds

B5: DOM-52 (other)
VL: B2 VL with A28D, H31S, R32A, H50L, R51G, K53D, V91T, A92Q, L93Y, Y96T
notes: Vk dAb
binding result: binds

B6: DOM.89 (other)
VL: DIQMTQSPASLSASVGDRVTITCRASQDIDPMLRWYQQKPGKAPKLLIYAGSILQSGVPSRFSGSGSGTDFTLTISSLQPEDFATYYCQQTLVTPYTFGQGTKVEIKR
notes: Vk dAb
binding result: binds

B7: DOM.160 (other)
VL: B1 VL with D30E, H31A, N32D, D50H, M53E, S93M, I94S
notes: Vk dAb
binding result: binds

B8: DOM.150 (other)
VL: B4 VL with Q28G, S30G, D31T, E32D, A50M, V51G, I53Y, W91I, L92Y, S96I
notes: Vk dAb
binding result: binds

B9: DOM.104 (other)
VL: B2 VL with A92R, L93F, F94S
notes: Vk dAb
binding result: binds

B10: DOM.161 (other)
VL: B1 VL with H31S, N32D, K45M, D50S, M53D, I94L
notes: Vk dAb
binding result: binds

B11: DOM.110 (other)
VL: B6 VL with L92S, V93I, T94R
notes: Vk dAb
binding result: binds

B12: DOM-86 (other)
VL: B1 VL with D30G, H31D, N32A, E34F, D50Y, S65G, Y91R, I94T, V96A
notes: Vk dAb
binding result: binds

B13: DOM.156 (other)
VL: B1 VL with D30M, H31D, D50A, S51A, M53W, S93K, I94L
notes: Vk dAb
binding result: binds

B14: DOM.108 (other)
VL: B2 VL with V91R, L93V, F94R, Y96F
notes: Vk dAb
binding result: binds

B15: DOM.109 (other)
VL: B2 VL with V91T, A92Y, L93Y, F94R, Y96L
notes: Vk dAb
binding result: binds

B16: DOM-49 (other)
VL: DVQMTQSPSSLSASVGDRVTITCRASQWIGDSLSWYQQKPGKAPKLLIYFGSYLQSGVPSRFSGSGSGTDFTLTISSLQPEDFATYYCQQYMSAPSTFGQGTKVEIKR
notes: Vk dAb
binding result: binds

Results, then the binder that gave them:

binding result: binds
B17: DOM.103 (other)
VL: B2 VL with A92R, L93A, F94V
notes: Vk dAb

binding result: binds
B18: DOM.143 (other)
VL: B1 VL with D28T, D30E, H31T, M53Q, F83L, S93G, I94Y, V96T
notes: Vk dAb

binding result: binds
B19: DOM.107 (other)
VL: B2 VL with V91T, A92Y, L93S, F94S, Y96H
notes: Vk dAb

binding result: binds
B20: DOM.105 (other)
VL: B2 VL with V91S, A92Y, L93A, F94R, Y96V
notes: Vk dAb

binding result: binds
B21: DOM.144 (other)
VL: B1 VL with D28M, H31Q, N32D, D50N, S51A, M53W, S93G, I94Y, V96I
notes: Vk dAb

binding result: binds
B22: DOM-47 (other)
VL: B16 VL with V2I, M92L, S93H, A94T
notes: Vk dAb

binding result: binds
B23: DOM.157 (other)
VL: B1 VL with D28N, D30G, H31E, N32D, K42N, D50S, S51A, M53H, H92S, I94Y
notes: Vk dAb

binding result: binds
B24: DOM.155 (other)
VL: B1 VL with D30G, H31M, N32D, K39I, A43V, S51A, M53Y, S93K, I94L, V96A
notes: Vk dAb

binding result: binds
B25: DOM.159 (other)
VL: B1 VL with T5I, D30N, H31E, N32D, D50N, S51A, E81K, S93T, I94N, V96T
notes: Vk dAb

binding result: binds
B26: DOM.142 (other)
VL: B16 VL with V2I, W28F, G51S, Y53I, M92H, S93T, A94S, S96T, Q100R, E105K
notes: Vk dAb

binding result: binds
B27: DOM-38 (other)
VL: B1 VL with D30G, H31N, K45R, D50H, S51G, M53W, H92D, S93F, I94N, V96T
notes: Vk dAb

binding result: binds
B28: DOM.106 (other)
VL: B2 VL with A28S, G30N, R34Y, K53R, V91Y, A92K, L93V, F94R, Y96N
notes: Vk dAb

binding result: binds
B29: DOM-37 (other)
VL: B1 VL with D28Q, D30E, H31T, S51G, M53W, I94L, V96A
notes: Vk dAb

binding result: binds
B30: DOM.147 (other)
VL: B1 VL with D28E, D30E, H31T, M53H, S93Q, I94N, V96P
notes: Vk dAb

binding result: binds
B31: DOM.158 (other)
VL: DIQMTQSPSSLSASVGDRVTITCRASQPIDEDLEWYQQKPGNAPKLLIYSASYLQSGVPSRFSGSGSGTDFTLTISRLQPEDFATYYCQQYHLLPATFGQGTKVEIKR
notes: Vk dAb

binding result: binds
B32: DOM.154 (other)
VL: DIQMTQSPSSLSASVGDRVTITCRASQDIEEMLHWYQQKPGKAPKLLIYFGSLLQSGVPSRFSGSRSGTDFTLTISSLQPEDFATYYCQQHHTRPYTFGQGTKVEIKR
notes: Vk dAb

binding result: binds
B33: DOM-116 (other)
VL: DIQMTQSPSSLSASVGDRVTITCRASQPIGPDLLWYQQKPGKAPKLLIYQTSILQSGVPSRFSGSGSGTDFTLTISSLQPEDFATYYCQQYWAFPVTFGQGTKVEIKR
notes: Vk dAb
